The values that follow come from article PMC3800195 (Molecular microbiology, 2010).

The data set concerns the molecule itself. Put plainly: crystal structure.

B1: IsdI (enzyme, Staphylococcus aureus)
chain: MFMAENRLQLQKGSAEETIERFYNRQGIETIEGFQQMFVTKTLNTEDTDEVKILTIWESEDSFNNWLNSDVFKEAHKNVRLKSDDDGQQSPILSNKVFKYDIGYHYQK
On to B1, for which the binding result is reported as “binds”.
